Measured values reported in patent US20210355194A1 (TWIST BIOSCIENCE, published 2021).

target: CV S-protein construct 6 trimer TP31001F (SARS-CoV-2, UniProt P0DTC2 14-1208); assay: SPR

Binder	Kd [nM]
variant 6-54 (Fc fusion) VHH: EVQLVESGGGLVQPGGSLRLSCAASGFEFENHWMGWFRQAPGKEREYVAHITAGGLSNYADSVKGRFTISADNSKNTAYLQMNSLKPEDTAVYYCGRHWGIYDSSGFSSFDYWGQGTLVTVSS	0.9
variant 6-82 (Fc fusion) VHH: EVQLVESGGGLVQPGGSLRLSCAASGSSLDAYGMGWFRQAPGKEREFVAAISWGGGSIYYADSVKGRFTISADNSKNTAYLQMNSLKPEDTAVYYCARLSQGMVALDYWGQGTLVTVSS	0.6
variant 6-57 (Fc fusion) VHH: EVQLVESGGGLVQPGGSLRLSCAASGLTFDDHSMGWFRQAPGKEREFVAAVPLSGNTYYADSVKGRFTISADNSKNTAYLQMNSLKPEDTAVYYCASFSGGPADFDYWGQGTLVTVSS	0.7
variant 6-78 (Fc fusion, VHH-Fc) VHH: EVQLVESGGGLVQPGGSLRLSCAASGRTYDAMGWFRQAPGKEREFVASVTSGGYTHYADSVKGRFTISADNSKNTAYLQMNSLKPEDTAVYYCAKFGRKIVGATELDYWGQGTLVTVSS	0.4
variant 6-50 (Fc fusion) VHH: EVQLVESGGGLVQPGGSLRLSCAASGFSFDRWAMGWFRQAPGKEREWVASLATGGNTNYADSVKGRFTISADNSKNTAYLQMNSLKPEDTAVYYCARVTNYDAFDIWGQGTLVTVSS	67.6
variant 6-62 (Fc fusion) VHH: EVQLVESGGGLVQPGGSLRLSCAASGSTFSGNWMGWFRQAPGKEREFVAVISWTGGSTYYADSVKGRFTISADNSKNTAYLQMNSLKPEDTAVYYCATHNSLSGFDYWGQGTLVTVSS	198
variant 6-52 (Fc fusion) VHH: EVQLVESGGGLVQPGGSLRLSCAASGDTYGSYWMGWFRQAPGKEREVVAAITSGGSTVYADSVKGRFTISADNSKNTAYLQMNSLKPEDTAVYYCARVDSRFDYWGQGTLVTVSS	1.1
variant 6-55 (Fc fusion, VHH-Fc) VHH: EVQLVESGGGLVQPGGSLRLSCAASGFTMSSSWMGWFRQAPGKEREFVARITSGGSTGYADSVKGRFTISADNSKNTAYLQMNSLKPEDTAVYYCASVDGYFDYWGQGTLVTVSS	0.3
variant 6-47 (Fc fusion) VHH: EVQLVESGGGLVQPGGSLRLSCAASGRTFSMHAMGWFRQAPGKERELVASITYGGNINYADSVKGRFTISADNSKNTAYLQMNSLKPEDTAVYYCAKEGYYDSTGYRTYFQQWGQGTLVTVSS	5.6
variant 6-72 (Fc fusion) VHH: EVQLVESGGGLVQPGGSLRLSCAASGSTLSINAMGWFRQAPGKEREFVAAIDWSGGSTAYADSVKGRFTISADNSKNTAYLQMNSLKPEDTAVYYCARDSSATRTGPDYWGQGTLVTVSS	2
variant 6-58 (Fc fusion) VHH: EVQLVESGGGLVQPGGSLRLSCAASGRAVSTYAMGWFRQAPGKEREFVAAISGSENVTSYADSVKGRFTISADNSKNTAYLQMNSLKPEDTAVYYCLSVTGDTEDYGVFDTWGQGTLVTVSS	1
variant 6-49 (Fc fusion) VHH: EVQLVESGGGLVQPGGSLRLSCAASGSTVLINAMGWFRQAPGKEREFVAAISWSPGRTDYADSVKGRFTISADNSKNTAYLQMNSLKPEDTAVYYCARDCSGGSCYSGDYWGQGTLVTVSS	2.2
variant 6-68 (Fc fusion) VHH: EVQLVESGGGLVQPGGSLRLSCAASGFTLSDRAMGWFRQAPGKEREYVAHITAGGLSNYADSVKGRFTISADNSKNTAYLQMNSLKPEDTAVYYCVHLASQTGAGYFDLWGQGTLVTVSS	0.7
variant 6-73 (Fc fusion, VHH-Fc) VHH: EVQLVESGGGLVQPGGSLRLSCAASGHTFSGYAMGWFRQAPGKEREFVAVITREGSTYYADSVKGRFTISADNSKNTAYLQMNSLKPEDTAVYYCARLGGEGFDYWGQGTLVTVSS	0.5
variant 6-66 (Fc fusion) VHH: EVQLVESGGGLVQPGGSLRLSCAASGLTFSLFAMGWFRQAPGKERELVAAISSGGSTDYADSVKGRFTISADNSKNTAYLQMNSLKPEDTAVYYCARGNTKYYYDSSGYSSAFDYWGQGTLVTVSS	7.7
variant 6-67 (Fc fusion) VHH: EVQLVESGGGLVQPGGSLRLSCAASGSFSNYAMGWFRQAPGKEREFVAAISSSGALTSYADSVKGRFTISADNSKNTAYLQMNSLKPEDTAVYYCWIVGPGPLDGMDVWGQGTLVTVSS	0.1
variant 6-74 (Fc fusion) VHH: EVQLVESGGGLVQPGGSLRLSCAASGFAFGDSWMGWFRQAPGKERELVAAITSGGSTDYADSVKGRFTISADNSKNTAYLQMNSLKPEDTAVYYCARGLLWFGELFGYWGQGTLVTVSS	498
variant 6-71 (Fc fusion) VHH: EVQLVESGGGLVQPGGSLRLSCAASGITFSNDAMGWFRQAPGKEREFVAIITSSDTNDTTNYADSVKGRFTISADNSKNTAYLQMNSLKPEDTAVYYCARLHYYDSSGYFDYWGQGTLVTVSS	0.6
variant 6-53 (Fc fusion) VHH: EVQLVESGGGLVQPGGSLRLSCAASGISINTNVMGWFRQAPGKEREFVAAISTGSVTIYADSVKGRFTISADNSKNTAYLQMNSLKPEDTAVYYCARVDDFGYFDLWGQGTLVTVSS	24.2
variant 6-51 (Fc fusion) VHH: EVQLVESGGGLVQPGGSLRLSCAASGYTYSSYVMGWFRQAPGKEREFVAAISRFGSTYYADSVKGRFTISADNSKNTAYLQMNSLKPEDTAVYYCARDSGEHFWDSGYIDHWGQGTLVTVSS	0.8
variant 6-60 (Fc fusion, VHH-Fc) VHH: EVQLVESGGGLVQPGGSLRLSCAASGDTYGSYWMGWFRQAPGKEREFVATISQSGAATAYADSVKGRFTISADNSKNTAYLQMNSLKPEDTAVYYCAGLLRYSGTYYDAFDVWGQGTLVTVSS	0.1
variant 6-70 (Fc fusion) VHH: EVQLVESGGGLVQPGGSLRLSCAASGFNLDDYADMGWFRQAPGKEREFVAAIGWGGGSTRYADSVKGRFTISADNSKNTAYLQMNSLKPEDTAVYYCAREILWFGEFGEPNVWGQGTLVTVSS	1.1
variant 6-76 (Fc fusion, VHH-Fc) VHH: EVQLVESGGGLVQPGGSLRLSCAASGLAFDFDGMGWFRQAPGKEREGVAAINSGGSTYYADSVKGRFTISADNSKNTAYLQMNSLKPEDTAVYYCARFFRAHDYWGQGTLVTVSS	1.8
variant 6-56 (Fc fusion) VHH: EVQLVESGGGLVQPGGSLRLSCAASGNIFRSNMGWFRQAPGKEREFVAGITWNGDTTYYADSVKGRFTISADNSKNTAYLQMNSLKPEDTAVYYCARALGVTYQFDYWGQGTLVTVSS	14.9
variant 6-75 (Fc fusion) VHH: EVQLVESGGGLVQPGGSLRLSCAASGGTFSTYWMGWFRQAPGKEREFVAAISRSGGNTYYADSVKGRFTISADNSKNTAYLQMNSLKPEDTAVYYCVRHSGTDGDSSFDYWGQGTLVTVSS	1
